We go through two sequences from the Immune Epitope Database (IEDB).

The target of assay [1] is HLA-B*15:02. The assay can be described thus: IEDB peptide-MHC binding, purified MHC/competitive/fluorescence; filed as Kd, often an IC50 or EC50 that approximates it; ≥ and ≤ were set here for values at or beyond the usual limits of such assays. Conditions: source organism: Bacillus licheniformis.
Assay [2] concerns the target HLA-B*15:01. The assay can be described thus: IEDB peptide-MHC binding, purified MHC/direct/fluorescence; filed as Kd, often an IC50 or EC50 that approximates it; ≥ and ≤ were set here for values at or beyond the usual limits of such assays. Particulars: source organism: Bacillus licheniformis.
Assay [3] has as its target HLA-A*01:01. The assay is described as above. Conditions: source organism: Bacillus licheniformis.
Assay [4] addresses HLA-A*26:01. Described as above. Particulars: source organism: Bacillus licheniformis.
Assay [5] has as its target HLA-A*69:01. The assay is described as above. Conditions: source organism: Bacillus licheniformis.
Assay [6] has as its target HLA-B*08:01. The assay is described as above. Particulars: source organism: Bacillus licheniformis.
The target in assay [7] is HLA-B*58:01. The assay is described as above. Particulars: source organism: Bacillus licheniformis.
In assay [8] the target is HLA-B*40:01. The assay is described as above. Particulars: source organism: Bacillus licheniformis.
The target in assay [9] is HLA-B*07:02. The description is as above. Particulars: source organism: Bacillus licheniformis.
In assay [10] the target is HLA-A*31:01. Described as above. Conditions: source organism: Bacillus licheniformis.
Assay [11] concerns the target HLA-A*03:01. The description is as above. Particulars: source organism: Bacillus licheniformis.
In assay [12] the target is HLA-A*02:01. Described as above. Conditions: source organism: Bacillus licheniformis.
In assay [13] the target is HLA-B*27:05. The description is as above. Particulars: source organism: Bacillus licheniformis.
In assay [14] the target is HLA-A*11:01. The description is as above. Conditions: source organism: Bacillus licheniformis.
The target of assay [15] is HLA-A*30:01. Put plainly: IEDB peptide-MHC binding, purified MHC/competitive/fluorescence; filed as Kd, often an IC50 or EC50 that approximates it; ≥ and ≤ were set here for values at or beyond the usual limits of such assays. Conditions: source organism: Human immunodeficiency virus 1.
In assay [16] the target is HLA-A*26:01. The assay is described as above. Particulars: source organism: Human immunodeficiency virus 1.
The target of assay [17] is HLA-A*69:01. Described as above. Conditions: source organism: Human immunodeficiency virus 1.
Assay [18] has as its target HLA-B*08:01. The description is as above. Particulars: source organism: Human immunodeficiency virus 1.
For assay [19], the target named is HLA-A*02:06. The description is as above. Conditions: source organism: Human immunodeficiency virus 1.
For assay [20], the target named is HLA-A*02:03. Described as above. Conditions: source organism: Human immunodeficiency virus 1.
The target in assay [21] is HLA-A*26:03. Described as above. Particulars: source organism: Human immunodeficiency virus 1.
Assay [22] concerns the target HLA-A*31:01. The assay is described as above. Particulars: source organism: Human immunodeficiency virus 1.
The target of assay [23] is HLA-A*68:02. The assay is described as above. Particulars: source organism: Human immunodeficiency virus 1.
Assay [24] has as its target HLA-A*03:01. The description is as above. Conditions: source organism: Human immunodeficiency virus 1.
Assay [25] concerns the target HLA-A*02:01. Described as above. Conditions: source organism: Human immunodeficiency virus 1.
Assay [26] has as its target HLA-A*11:01. The description is as above. Conditions: source organism: Human immunodeficiency virus 1.
For assay [27], the target named is HLA-B*08:02. Described as above. Conditions: source organism: Human immunodeficiency virus 1.

For orientation: pKd means the negative decadic logarithm of the Kd, by convention in mol/L. Low values mean a large Kd, high ones a small Kd.

pKd: −log10 of the molar value.

On to VQIPEKKCF, for which the pKd is at most 4.70 in assay [1]; 6.34 in assay [2]; at most 4.70 in [3]; at most 4.70 in assay [4]; at most 4.70 in [5]; at most 4.70 in assay [6]. Moreover, the pKd in assay [7], in assay [8], in [9], in assay [10], in assay [11] and in assay [12] was at most 4.70 throughout. The pKd in assay [13] and in assay [14] was at most 4.70 in each case.

VLYCVHQRV: the pKd in assay [15] is 5.73; in assay [16], at most 4.70; in assay [17], at most 4.70; in [18] it was at most 4.70; in [19], 9.30; in assay [20], 8.33. Further, the pKd in assay [21] was at most 4.70; in assay [22], 4.92; in assay [23], 6.65; in assay [24], at most 4.70; in [25], 8.01; in assay [26], 4.97. The sequence also had a pKd in assay [27] of at most 4.70.
